Assay results taken from a protein production outcome set (Wang et al. 2014).

Experiment: label from the status in PepcDB records
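Note: failed if final PepcDB status was selected cloned or expressed and not failed if soluble or beyond.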

| Sequence | protein production |
| --- | --- |
| MKARAILLASVLLVGCQASKHDGTVEQRAQSLSAAGQGEAGKFTSQARWLDDGTFYAQDQDLWTSIGDELKMGIPDNPRIREQKQKYLRNKSYLHDVTLRAEPYMYWIAGQVKKRNMPMELVLLPIVESAFDPHATSGANAAGIWQIIPSTGRNYGLKQTRSYDARRDVVASTTAALDMMQRLNKMFDGDWLLTVAAYNSGEGRVMKAVKANRSRGKPTDFWSLSLPHETKIYVPKMLALSDILKNSKRYGVKLPTADESRALARVRLDSPVDISQLADMAGMPVSKLKTFNAGVKGSTLGASGPKYVMVPQKHAAQLRESLASGDIAAVQPTQLADNTPLTSRSYKVRSGDTISGIASRLGVTTRDLQQWNNLRGSGLKVGQNLVIGAGSSAQRLANNSDSITYRVRKGDSLSSIAKRHGVNIRDVMRWNSDTDNLRPGDQLTLFVKNNDRPES | failed |
| MKCIESLGKTVDEAVKKALSELKVTEDKVEIKVIDEGSKGLLNIIGKREAKVKVTLKTDYIDEVRTFLRKVFEDMNLVIEIKIKEIGNDLFVNLFGKNIGLLIGYRGETLDSLQYLVNLVANKNHADGKYKRVILDTENYRAKREETLKRLALKISKRVKEEKSPFKLEPMNPYERRVIHSALQNDKYVRTYSEGEEPHRRVVVELKKS | not failed |
| MKCYLTGCIAGPLAFSEDLELIDYEPFPVDEIPGRLAESQMGGVSPEERIMLERLTPEYDEVVVEASPSPEYAGFRNLRFEVPSRAGIHLRENLEDILAEILDMPAGDFIHDALMSVARERLRESLRETDRFIIQSINALDELDEETGKLIERLREWYSLHFPELDGIKSHEQYVELIAEYGDRDQILKNFRMDVDESLGSDITSEDLHILRGLAESIRGLQRLREETERYIDIKMEKLAPNLRALAGSNVGARLIAHAGGLRELAMLPSSTIQVLGAEKALFRHLKSGAKPPKHGVIFQHPSIRSSPWWIRGKVARLLAGKIAIAVRKDVFSREFDPGIVESFNERFEAIKSNNPKPPARKKGFRKKRK | failed |
| MKDGEAATGQAASRPKRADARRNEKNLLDAAAAVFVRSGVEAPVRDIAAEAGVGTATIYRHFPTRADLIIGVYRHQVEACAEAGPALLASSPTPYAALAGWIDLFVDFLVTKHGLAAVLQSDSAGFETLHAYFLDRLVPVCTDLLAAATDSGEIDTDVPPLALMRGVGNLCIGAETPNPSYDARQLVRILIAGLRAAD | not failed |
| MKDILWLMQKTLSVLLKNKKGLLIIISLPIIGTLISFSIYGNAGQGALNIGVINKENESIANDTVKFLEEINHVKVSKVKESEVEDKLTSKKLDGVITLQSGFSESVREGKPSNIEISSIKGDQVTAFIKSYLYNYIDNVAAISKVAGTDQSAFDTMYAGYQKSSFKVKTETLEDTSKNKDMTNQTMGYLIMFMLFSAVNLSGYILKEKENRTYFRLLSTPIDGKKFILSNVGVNMIILTVQIMITILFLTNVFHTNINMPFIVMVGVLMIFALIAIGMSLVIVAFSKNSSSANAMQNMVIVPTCLLAGCYFPYDIMPSAVQKVANFLPQRWLLDTVSKLQQGIPFSELYLNILILFAFAIAFFLIAIYKFGRNNDARNFV | failed |
| MKDPLLNSLIYVSRYYGLANSPEALVNGLPLSDGKLTPFLLPRAAERAGLVAKENRAELEKISSLILPAILVLKGGDSCVLNSINMETREAEVTTLESGMVPISIPLEDLLEQYTGRYFLVKKQFR | not failed |
| MKDSDKEKENGKMGCWSIEHVEQYLGTDELPKNDLITYLQKNADAAFLRHWKLTGTNKSIRKNRNCSQLIAAYKDFCEHGTKSGLNQG | not failed |
| MKEDRVVFIFGPTAVGKSNILFHFPKNKAEIINVDSIQVYKEFNIASSKPSKNLMKHIKHHLVDFLDPEKDYTIGIFYEQALKIVKEIRQKKKIPIFVGGTAFYFKHLKDGFPSTPLVTSKIRIYVNNLLELKGKSYLLKELKNVDPIRFNMLNKNDIYRIKRSLEVYYQTGIPISQFQKKQSSEFKNIVIIGLKRSFEDLKTRISIRINEMLNSGLLSEIKGLFSKGYNENTPAFKGIGYNEFLLWKSRPCYGLNDIIGLINKNSFLYAKRQMTFFAKISDVLWLHPEDDLDNILNLIFKVDKEI | failed |
| MKEEIVNERQCETEDEKIDIQQLLFKYIIHWPWFVGAVLVCLIGAWIYLRMATPVYNISATVLIKDDKKGGNTGSMVGLEELGLSGLISSSQNIDNELEVLRSKTLVKEVINLLNLYVSYTDEDGFPSKNMYKTSPVLVSLTPQEAEKLTDPMVVEMALYGEGGLEVNVTVGDKEYQKHFEKLPAVFPMDEGTLAFFQSPDSLSLKKDTMEASSNIRHITAKIKSPMKVARAYCENLKIEPTSKTTSVAVISLKNSSLQRGQDFINQLLEMYNRNTNNDKNEIAQKTAEFIDERINIISKELGSTEANLENFKRNAGITDLTSEAQIALTGNAEYEKKRVENRTQISLIEDLRKYIRGNEYEVLPGNIGLQDPGLVATIERYNEMLVERKRLLRTSTENNPTIINLDTSIRAMKSNVQATLDGSLKGLLITKADLEREASRFSRRISDAPGQERQFVSIARQQEIKAGLYLMLLQKREENAIALAATANNAKIIDEAIADDIPVSPKRRMIYLIALVLGIGIPVGIIYLIGLTKFKLEGRADVEKLTTIPIVGDIPLTDEKNEKDGSIAVFENQNNLMSETFRNIRTNLQFMLQNDKKVILVTSTVSGEGKSFISANLAISLSLLGKKVVIVGLDIRKPGLNKVFRLSTKEKGITLYLANPETDLMSLVQPSDINQNLYILPGGTVPPNPTELLARDGLDKAIEILKKNFDYVILDTAPVGMVTDTLLIGRVADLSVYVCRADYTHKVEYTLINELAEEKKLPNLCTVINGVDLKRRKYGYYYGYGKYGKYYGYGKRYGYGYGYGQEKGAKS | failed |
| MKEELKREYERIKDRISPEEFEELIEKKKEELGDIGFMDDLTIASTVVDDILKEKNTMLSEKPEHRMDTISKLEEGAETPVTGRVMKISSPRTFTTRKGREGKLANVIIADDTGELRAVFWTENIKLLKKFREGDVIRIKDVNIRGGFGGRKEAHLMPRSTVEVLDPEDYPEFPEYREEITPIGDLVEDDEVNVIARITGVSRVRTFERDGREGRFISLDIMDATGSTTYTLWNNDVNLVEELGLKEGDAVKILWAQPRRRDDKVTLTHTSLTRVVPGEYDVPEFREELVKIGDLHEMRNVTVMGLVTKVNDPVEFERNDGTTGSVKSIEIADDTGSARVTLWDEDTRIKINKGDIIRISGANVEFDDFNQSYRINTNFNTRITLNPESDGALLKVLEEYREQMRPMKISEILEMEDEGEEVDVVGRIFSLSDPREFEREDGTGIVRSMELADETGKIRISLWDEKAEKPMNIGDAVRIENARIRLGLYSVELSAGRTTRIVNPLPEDMEDLPSFEELEEMLYQTKKIADLEEDDRNIRIIARVVDLFEPREFQRGDGTPGLVRTAEFADDTGSIRASLWDDAAEKPLSIGDPVKIENPRVVFRDDMGGGRLETQHRKQFKD | failed |
| MKEFRKILEDKAFFFTTLYILISFLVFKIFPDVFAVIVLMVFFTLLLDPVIRFLEKLKFGKYFSRVAALLLFFFVMVYSLYMIIPPVFNEFGSFIEFMTKVFESKIWKDYIKSPELMPVFDKIMNFLEPKLTDFLNYVFSLVTTNFVSVTTIIVFTLFGLGYTVFYIREIASFFVLIYPKSVRAEAREFFRDVYASMGRYIRVIFINAVIIGLSYWIVFEAFNLKYSAIISLWAFVTNFIPIVGVVLEYIPVLLFSLTLGVKGVLLIALFAILIHAVAFVVFIQLMKGLEKLNPVYIILSILFFGKLFGLFGSFVGVPLALFFKVFWRKFLRPLFEAG | failed |
| MKEGIELNTKKRIIGLDFARALAMFGMLLVNFMVITGAEGNGPPFLITLMSLFEGRASALFVILAGIGISLMTRSSVARNEKIKISNSRKIIWKRALFLFILGLLLYVMEWTGDILHYYGVYLFVAALLITVRKKALLFLSIIILLLAQSLQLTFNAFEGWGGPTPFINYVDFWTVNGFLRNLFFNGYHPFSHRFSFFLIGMIIGRLDLHNKKIRDRLLLLGITFTILIELLSKGLTYYFIPHIGKAAATFLFNTGPVLPNVLYILSATGSAIAILILCLYITEKYENNWFVTSIIQTGQLTLTHYVSHVFIGIGTLILFNRMEHQTLLFVLLFATVFFIFSILFSVLWRKKFSRGPIEWIMRKLAS | not failed |
| MKEICMLLVAVILWGTAIAPTKWALESIQPFTLLFIRLFFAGGICMIFSFKELQKSVVHKKVPWKRMSLLAFTGVAGYFMFTSYGISLTSGLHVSIIDAALPLVTILFSALFLKEEIRLNYWIGIILGAIGVLFITIPSKSANQEVSLIGDILILLSTFLFAFYTVLLKRPKQEQYLSNEVFTTLTLIIGAVILLPFALVEIFYYGLPKVETWKTVLSVIYLVIGATILAYWFWNKALERVSASVSGLYLNALPLISIITSIILLNESLTWRVIMGASLVLIGVGWADKQKLCNLLKGNKVENRDC | failed |
| MKEKISEKEYKALIRKIGKEHFDGEKEEYGDGTVGVWTYELRKYKLKPPVKVKYVTQEQFQEYKDSNNQRLIKIETTLAAQGEQIRIQVEQIKELQIEQKAQGETLKLILQTLQKMSDRLDKMEVKMDKMEEKMDKMEGKIDKIENRMDKMEVKMDKMEKRIDKLESKLEHHHHHH | failed |
| MKEKLWTTTFVVNMLLNFIFYLVFYLPTVVIGTMAMERYHASASIAGILSGIFIVGGFIARLWAGNNMKRLGAKKLLYIGTLIYFLLTFAYFFVHSVVLLLILRLVHGLGFGIAATASGTLAGAIVPSSRRGEGIGYYALSVTLSSAVGPFLSMFLYRTSGFYSLIWLSALLLFIALVGIFFIHVEKTTDSSNSVDNKVHKKFAWSNYFEKEALPISLIAFLIGISYSSILSFMDAYARNIHLSEAASFFFLVYAITVLLSRPITGRVFDGFGDNFVMYPTYLFFALGLLLIGFAHSGWMLLLAAIFIGLGYGSFSPFGQAIAIRNSEAHRLGITTSTFFGFMDMGVGFGPFILGMFMPLLGYRNLYFASAILALLIAVIYHFVHGRHAKREN | failed |
| MKELIKEHQKDINPALQLHDWVEYYRPFAANGQSANYIPALGKVNDSQLGICVLEPDGTMIHAGDWNVSFTMQSISKVISFIAACMSRGIPYVLDRVDVEPTGDAFNSIIRLEINKPGKPFNPMINAGALTIASILPGESAYEKLEFLYSVMETLIGKRPRIHEEVFRSEWETAHRNRALAYYLKETNFLEAEVEETLEVYLKQCAMESTTEDIALIGLILAHDGYHPIRHEQVIPKDVAKLAKALMLTCGMYNASGKYAAFVGVPAKSGVSGGIMALVPPSARREQPFQSGCGIGIYGPAIDEYGNSLTGGMLLKHMAQEWELSIF | not failed |
| MKELQEKNEQITLLVEMSDIMLACGSQEELSEVMAKYSQRLLQFSSGYLFIMHPSKNYLEKAASWGNPHPHDLTFTPEQCWAIRLGRIHYAGSSRIELMCSHMMFDEQPELSLLCVPLMAQNDIYGLLYLEVGLKFDENQQLLITAFAELTALALANVRLRENLRYQSIR | failed |
| MKEPPMTKTVFHLGVTEADLNGATLAIIPGDPARVQKIAELMDNPVFLASHREYTVYRAELDGQSVVVCSTGIGGPSTSIAVEELAQLGVRTFLRVGTTGAIQPHVNVGDMIVTTGSVRLDGASLHFAPMEFPAVPDFDVATAMKAAAQESGATVHMGVTASSDTFYPGQERYDTFTGRVVRRFQGSMKEWQDMGVLNFEMESATLLTMCASSGLKAGCVAGVIINRTQKEIPDHATLKETEARSIKVVVEAARKMLK | not failed |
| MKERIVGQSGELFCFGQMPVWKVENLPEVLLSGYSSEEGEWVCLNVLQGDVEVRAPDGSAEVWSADGGDCVFAPQQVFSVKPKTDDAEIRLSLYCAAADYFHKKYGMSATHSAVAAARDTVPAGRALDMGCGQGRNALFLGLKGFEVTAVDHNPAALANVAELAEAEGLNVRTLEYDLNAAALQGEFDYIVATVVLMFLMPQRVPDVIADMQAHTAAGGYNLIVSAMDTADFPCPMPFPFKFKEGELKDYYRDWELVEYKEELGSMHAKDENGNPIRFKFVTMLAKKPELEHHHHHH | failed |
| MKFDESKTLLPVRKPVNGNRKTAGYKLWVLIAVLLLAFGSMLTGSVSLKGIGLFHSADGVNAFSFGDDLDVLEIEEREKVVRQMWDVYGRSGGVKVPRFWREAFEAAYEFLISDSAAVRNAAVSDIAKLSLVRFVKSESTSAQPNLH | failed |
